Biological target: CmMYB6_N3 (Chrysanthemum morifolium)
Sequence (main, as listed by the source): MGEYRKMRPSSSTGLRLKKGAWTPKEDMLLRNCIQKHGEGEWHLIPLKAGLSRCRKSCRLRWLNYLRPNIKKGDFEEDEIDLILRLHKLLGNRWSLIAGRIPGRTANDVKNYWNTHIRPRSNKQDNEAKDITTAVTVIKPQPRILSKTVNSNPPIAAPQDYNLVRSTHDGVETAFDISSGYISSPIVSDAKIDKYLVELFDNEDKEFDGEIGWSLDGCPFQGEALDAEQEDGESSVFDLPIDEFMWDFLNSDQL

GUS activity driven by the CmCHS promoter in tobacco leaves co-infiltrated with CmbHLH2^Full and full-length CmMYB6 (untagged effectors): 5 fold
GUS activity driven by the CmDFR promoter in tobacco leaves co-infiltrated with CmbHLH2^Full and full-length CmMYB6 (untagged effectors): 26 fold
Substance: CmbHLH2^Full_L (from UniProt A0A0S3J3I7 1-613) (natural protein)
